The text below walks through data of paper PMC1301591 (Nucleic Acids Research, 2005).

Test [1] deals with T1, Recombinant His-tagged WRN protein (human, UniProt Q14191 1-1432). The test is described as follows: ELISA.
Test [2] concerns the target T1, Recombinant His-tagged WRN protein. Description: pull-down.
Test [3] has as its target Recombinant His-tagged BLM protein (human, UniProt P54132 1-1417). The test is described as follows: pull-down.

T1 sequence (Q14191 whole entry): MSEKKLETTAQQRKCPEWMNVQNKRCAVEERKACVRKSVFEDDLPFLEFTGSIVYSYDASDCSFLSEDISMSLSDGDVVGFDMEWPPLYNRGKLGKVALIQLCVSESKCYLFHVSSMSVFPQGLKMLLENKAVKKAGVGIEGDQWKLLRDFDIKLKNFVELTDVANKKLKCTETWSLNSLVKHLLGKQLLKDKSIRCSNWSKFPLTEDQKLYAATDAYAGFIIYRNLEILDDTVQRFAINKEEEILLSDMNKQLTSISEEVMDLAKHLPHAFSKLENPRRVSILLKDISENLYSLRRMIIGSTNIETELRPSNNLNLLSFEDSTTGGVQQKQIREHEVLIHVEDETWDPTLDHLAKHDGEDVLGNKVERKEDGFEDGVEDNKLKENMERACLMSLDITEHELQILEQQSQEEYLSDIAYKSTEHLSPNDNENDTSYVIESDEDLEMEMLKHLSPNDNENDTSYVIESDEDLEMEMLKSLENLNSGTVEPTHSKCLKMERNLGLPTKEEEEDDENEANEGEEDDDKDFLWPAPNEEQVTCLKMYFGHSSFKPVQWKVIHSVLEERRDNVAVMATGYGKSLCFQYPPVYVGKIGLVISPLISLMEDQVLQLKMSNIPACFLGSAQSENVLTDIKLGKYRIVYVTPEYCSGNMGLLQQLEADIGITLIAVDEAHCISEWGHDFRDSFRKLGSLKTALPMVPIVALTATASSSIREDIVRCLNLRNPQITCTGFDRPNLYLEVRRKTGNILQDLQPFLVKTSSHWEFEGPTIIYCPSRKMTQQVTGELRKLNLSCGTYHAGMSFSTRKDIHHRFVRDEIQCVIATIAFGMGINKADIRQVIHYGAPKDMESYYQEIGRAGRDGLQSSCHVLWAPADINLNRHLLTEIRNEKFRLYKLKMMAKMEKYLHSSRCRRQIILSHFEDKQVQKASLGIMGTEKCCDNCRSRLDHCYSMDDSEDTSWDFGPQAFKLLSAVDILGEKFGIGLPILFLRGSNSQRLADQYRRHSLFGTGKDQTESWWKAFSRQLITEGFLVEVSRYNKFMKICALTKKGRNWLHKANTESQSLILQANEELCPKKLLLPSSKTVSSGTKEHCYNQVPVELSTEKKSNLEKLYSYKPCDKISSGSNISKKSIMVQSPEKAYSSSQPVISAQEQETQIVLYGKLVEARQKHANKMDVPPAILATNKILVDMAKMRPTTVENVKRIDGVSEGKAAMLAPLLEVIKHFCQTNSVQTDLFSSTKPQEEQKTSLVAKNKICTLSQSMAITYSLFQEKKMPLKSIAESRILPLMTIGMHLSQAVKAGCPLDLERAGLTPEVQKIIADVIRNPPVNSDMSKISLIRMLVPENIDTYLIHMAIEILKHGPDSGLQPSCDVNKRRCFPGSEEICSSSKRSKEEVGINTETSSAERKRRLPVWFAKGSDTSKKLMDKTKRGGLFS
Sequence of Recombinant His-tagged BLM protein (P54132 whole entry): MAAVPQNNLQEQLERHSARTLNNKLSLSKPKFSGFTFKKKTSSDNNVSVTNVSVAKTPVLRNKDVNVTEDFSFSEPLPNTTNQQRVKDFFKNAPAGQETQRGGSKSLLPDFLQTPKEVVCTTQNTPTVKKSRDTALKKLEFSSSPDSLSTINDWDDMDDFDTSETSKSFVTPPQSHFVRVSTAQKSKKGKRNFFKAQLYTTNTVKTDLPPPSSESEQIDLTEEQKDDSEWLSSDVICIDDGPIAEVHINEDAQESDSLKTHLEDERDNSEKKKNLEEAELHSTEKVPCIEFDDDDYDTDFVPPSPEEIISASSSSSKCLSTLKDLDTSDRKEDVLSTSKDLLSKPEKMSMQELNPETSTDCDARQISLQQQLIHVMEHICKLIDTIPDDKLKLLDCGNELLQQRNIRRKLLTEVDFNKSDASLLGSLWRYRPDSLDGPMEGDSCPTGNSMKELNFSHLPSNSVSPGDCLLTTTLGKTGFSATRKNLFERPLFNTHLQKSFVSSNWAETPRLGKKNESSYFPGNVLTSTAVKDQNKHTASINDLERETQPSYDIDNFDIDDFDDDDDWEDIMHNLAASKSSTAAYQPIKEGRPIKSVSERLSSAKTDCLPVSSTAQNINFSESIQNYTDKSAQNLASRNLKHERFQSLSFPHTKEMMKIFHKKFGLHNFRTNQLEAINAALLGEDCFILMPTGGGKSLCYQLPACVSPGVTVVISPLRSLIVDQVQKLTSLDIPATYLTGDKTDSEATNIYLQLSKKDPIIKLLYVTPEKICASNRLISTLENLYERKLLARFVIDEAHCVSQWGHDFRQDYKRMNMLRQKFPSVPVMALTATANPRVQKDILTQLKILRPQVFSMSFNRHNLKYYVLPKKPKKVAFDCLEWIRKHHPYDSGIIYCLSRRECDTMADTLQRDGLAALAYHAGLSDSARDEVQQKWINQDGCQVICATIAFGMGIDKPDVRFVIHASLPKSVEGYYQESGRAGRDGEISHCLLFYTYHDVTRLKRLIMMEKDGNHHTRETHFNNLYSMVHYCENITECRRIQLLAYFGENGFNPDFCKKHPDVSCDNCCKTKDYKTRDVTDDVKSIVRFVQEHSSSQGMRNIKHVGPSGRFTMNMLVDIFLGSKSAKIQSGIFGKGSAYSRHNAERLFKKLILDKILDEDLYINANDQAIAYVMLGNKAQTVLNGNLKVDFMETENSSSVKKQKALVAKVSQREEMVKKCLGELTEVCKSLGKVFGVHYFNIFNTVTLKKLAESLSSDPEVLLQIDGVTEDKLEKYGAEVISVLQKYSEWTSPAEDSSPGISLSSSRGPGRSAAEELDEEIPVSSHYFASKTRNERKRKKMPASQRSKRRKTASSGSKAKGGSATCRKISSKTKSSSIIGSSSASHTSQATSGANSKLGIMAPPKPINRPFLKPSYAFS

B1: FEN-1ΔP (residues 337–344 are deleted) (enzyme, human, UniProt P39748 1-380, looked up)
chain: MGIQGLAKLIADVAPSAIRENDIKSYFGRKVAIDASMSIYQFLIAVRQGGDVLQNEEGETTSHLMGMFYRTIRMMENGIKPVYVFDGKPPQLKSGELAKRSERRAEAEKQLQQAQAAGAEQEVEKFTKRLVKVTKQHNDECKHLLSLMGIPYLDAPSEAEASCAALVKAGKVYAAATEDMDCLTFGSPVLMRHLTASEAKKLPIQEFHLSRILQELGLNQEQFVDLCILLGSDYCESIRGIGPKRAVDLIQKHKSIEEIVRRLDPNKYPVPENWLHKEAHQLFLEPEVLDPESVELKWSEPNEEELIKFMCGEKQFSEERIRSGVKRLSKSRQGSTKVTGSLSSAKRKEPEPKGSTKKKAKTGAAGKFKRGK
As to B1, the binding result in test [1] is on record as “binds”.

For STKKKAKTGAAGKFKRGK (domain or fragment, UniProt P39748 363-380, looked up) [GST–FEN-1 fusion protein containing human FEN-1 amino acids 363–380], the binding result in test [2] and in test [3] was “binds” in each case.

B2: GST–FEN-1 fusion protein containing human FEN-1 amino acids 254–380 (domain or fragment, UniProt P39748 254-380, looked up)
chain: KSIEEIVRRLDPNKYPVPENWLHKEAHQLFLEPEVLDPESVELKWSEPNEEELIKFMCGEKQFSEERIRSGVKRLSKSRQGSTQGRLDDFFKVTGSLSSAKRKEPEPKGSTKKKAKTGAAGKFKRGK
As to B2, the binding result in test [2] and in test [3] was “binds” throughout.

B3: GST–FEN-1 fusion protein containing human FEN-1 amino acids 328–380 (domain or fragment, UniProt P39748 328-380, looked up)
chain: LSKSRQGSTQGRLDDFFKVTGSLSSAKRKEPEPKGSTKKKAKTGAAGKFKRGK
For B3, the binding result in test [2] and in test [3] was “binds” each time.
